# Measured values from patent US20140120095A1 (Boehringer Ingelheim, published 2014).
# B1: DLLBII47D01 (VHH)
# VHH: EVQLVESGGGLVQPGGSLRLSCAASGFTFDDYAIGWFRQAPGKEREGVSCISSSGSTYYADSVKGRFTISRDNAKNTVYLQMNSLKPEDTAVYYCAIAGASSWCFPPGYWGQGTQVTVSS
# B2: DLLBII102F08 (VHH)
# VHH: EVQLVESGGGLVQTGDSLRLSCAASGSTFSNYRMGWFRQGPGKEREFVAAIGRNGQNTYYTDSVKGRFTVTRDNAKNMVYLQMNSLKPEDSAVYTCAASLRGWDTTRIDYEYWGQGTQVTVSS
# B3: DLLBII112A03 (VHH)
# VHH: EVQLVESGGGLVQPGGSLRLSCAASGIRFSINGMGWYRQAPGKQREAVATITRGGIRDYTDSVKGRFTISRDIARNTVYLQMNNLKPEDSAVYYCNIDIYWGRGTQVTVSS
# B4: DLLBII102G04 (VHH)
# VHH: EVQLMESGGGLVQPGGSLRLSCAASGFTFSSYAMSWVRQAPGKGLEWVSRITSGGRTTYRDSVKGRFTISRDNSKNTLYLQMNSLKPEDTALYYCAKARGDIDVYTLSDSRGQGTQVTVSS
# B5: DLLBII112A04 (VHH)
# VHH: EVQLVESGGGLVQAGGSLRLSCAAFGRTPYGMGWFRQAPGKEREFVAAITSDGSTNYADSVKGRFTISRDNAKNAVSLQMNSLKPEDTAVYYCTAPYYSDFEGTTTEYDYWGQGTQVTVSS
# B6: DLLBII101H09 (VHH)
# VHH: EVQLVESGGGLVQPGGSLRLSCAASGFTLGYYTIVWFRQAPGKERKGVSCISSRDGSRYYADSVKGRFTISRDNAKNTVYLRMNSLKPEDTAVYYCAAGPDCSSYDYWGQGTQVTVSS
# B7: DLLBII101H05 (VHH)
# VHH: EVQLVESGGGSAQAGGSLRLSCAASGRTSSTYAMGWFRQAPGKEHEFVSAIGRGTGATSYGDSVKGRFTISRDNAKNTVYLQMNSLQLEDTGDYYCVAGRGFYHDYSSYEYRGQGTQVTVSS
# B8: DLLBII112E07 (VHH)
# VHH: EVQLVESGGGLVQAGGSLRLSCAASGRTVRSYATGWFRQAPGKEREFVAALRWSIGSIASVYYDDSVKGRFTISGDNAENTVYLQMNALKPEDTAIYYCASTTRGRYSALSASAYDYWGQGTQVTVSS
# B9: DLLBII129H04 (VHH)
# VHH: EVQLVESRGGLVQAGGSLRLSCAASGRTFSSYAMAWFRQAPGKEREYVAAIRWSGGTAYYADSVQGRFTISRDNAKNTVYLQMNSLKPEDTAVYYCANRAPDTRLEPYLYDHWGQGTQVTVSS
# B10: DLLBII129G10 (VHH)
# VHH: EVQLVESGGGLVQAGGSLRLSCAASGRTFSSYAMAWYRQAPGKEREYVAAIRWSGGTAYYADSVQSRFTISRDNAKNTVYLQMNSLKPEDTAVYYCANRAPDTRLEPYEYDHWGQGTQVTVSS
# B11: DLLBII129B02 (VHH)
# VHH: EVQLVESGGGLVQAGGSLSLSCAASGRTFSSYAMAWYRQAPGKEREYVAAIRWSGGTAYYADSVQGRFTISRDNAKNTVYLQMNSLKPEDTAVYYCANRAPDTRLEPYEYDHWGQGTQVTVSS
# B12: DLLBII129D01 (VHH)
# VHH: EVQLVESGGGLVQAGGSLRLSCAASGRTFSSYAMAWFRQAPGKEREYVAAIRWSGGTAYYADSVQSRFTITRDNAKNTVYLQMNSLKPEDTAVYYCANRAPDTRLEPYLYDHWGQGTQVTVSS
# B13: DLLBII130D06 (VHH)
# VHH: EVQLVESGGGLVQAGGSLRLSCSASGRTFSSYAMAWYRQAPGKEREYVAAIRWSGETAYYADSVQGRFTISRDNAKNTVYLQMNSLKPEDTAVYYCANRAPDTRLEPYLYDHWGQGTQVTVSS
# B14: DLLBII129G09 (VHH)
# VHH: EVQLVESGGGLVQAGGSLRLSCAASGRTFSSYAMAWYRQAPGKEREYVAAIRWSGETAYYADSVQGRFTISRDNAKNTVYLQMNSLKPEDTAVYYCANRAPDTRLEPYLYDHWGQGTQVTVSS
# B15: DLLBII130E03 (VHH)
# VHH: EVQLVESGGGLVQAGGSLRLSCAASGRTFSSYAMAWYRQAPGKEREYVAAIRWSGGTAYYADSVQGRFTISRDNAKNTVYLQMNSLKPEDTAVYYCANRAPDTRLEPYEYDHWGQGTQVTVSS
# B16: DLLBII129H05 (VHH)
# VHH: EVQLVESGGGLVQAGGSLRLSCAASGRTFSSYAMAWYRLAPGKEREYVAAIRWSGGTAYYADSVQGRFTISRDNAKNTVYLQMNSLKPEDTAVYYCANRAPDTRLGPYLYDYWGQGTQVTVSS
# B17: DLLBII130A05 (VHH)
# VHH: EVQLVESGGGLVQAGGSLRLSCAASGRTFSSYAMAWYRQAPGKEREYVAAIRWSGGTAYYADSVQGRFTISRDNAKNTVYLQMNSLKPEDTAVYYCANRAPDTRLGPYLYDHWGQGTQVTVSS
# B18: DLLBII130B02 (VHH)
# VHH: EVQLVESGGGLVQAGGSLRLSCAASGRTFSSYAMAWFRQAPGKEREYVAAIRWSGGTAYYADSVQGRFTISRDNAKNTVYLQMYSLKPEDTAVYYCANRAPDTRLAPYLYDHWGQGTQVTVSS
# B19: DLLBII129H02 (VHH)
# VHH: EVQLVESGGGLVQAGGSLRLSCAASGRTFSSYAMAWYRQAPGKEREYVAAIRWSGGTAYYADSVQGRFTISRDNAKNTVYLQMNSLKPEDTAVYYCANRAPDTRLRPYEYDYWGQGTQVTVSS
# B20: DLLBII130B04 (VHH)
# VHH: EVQLVESGGGLVQAGGSLRLSCAASGRTFSSYAMAWFRQAPGKEREYVAAIRWSGGTAYYADSVQGRFTISRDNAKNTVYLQMNSLKPEDTAVYYCANRAPDTRLRPYLYDHWGQGTQVTVSS
# B21: DLLBII129E07 (VHH)
# VHH: EVQLVESGGGLVQAGGSLRLSCSASGRTFSSYAMAWYRQAPGKEREYVAAIRWSGGTAYYPDSVQGRFTISRDNAKNTVYLQMNSLKPEDTAVYYCANRAPDTRLAPYEYDHWGQGTQVTVSS
# B22: DLLBII129E03 (VHH)
# VHH: EVQLVESGGGLVQAGGSLRLSCAASGRTFSSYAMAWFRQAPGKDREYVAAIRWSGGTAYYADSVQGRFTISRDNAKNTVYLQMNSLKPEDTAVYYCANRAPDTRLAPYLYDYWGQGTQVTVSS
# What was measured:
# [1] = biological target: T1, human DLL4 overexpressed on cells (human, UniProt Q9NR61 27-685); assay: FMAT, labelled hNotch1-Fc on CHO-hDLL4, periplasmic extract
# T1 construct: full length human DLL4 on CHO or HEK293 cells; also called CHO-hDLL4; CHO-hDII4
# Text: (§1) All calculations are based on the FL1_total signal which comprises the average of the fluorescence per well times the number of counts per well.
# [2] = biological target: T2, mouse DLL4 overexpressed on cells (mouse, UniProt Q9JI71 27-686); assay: FMAT, labelled hNotch1-Fc on CHO-mDLL4, periplasmic extract
# T2 construct: whole, on cells; also called CHO-mDLL4; CHO-mDII4
# T2 sequence (Q9JI71 27-686): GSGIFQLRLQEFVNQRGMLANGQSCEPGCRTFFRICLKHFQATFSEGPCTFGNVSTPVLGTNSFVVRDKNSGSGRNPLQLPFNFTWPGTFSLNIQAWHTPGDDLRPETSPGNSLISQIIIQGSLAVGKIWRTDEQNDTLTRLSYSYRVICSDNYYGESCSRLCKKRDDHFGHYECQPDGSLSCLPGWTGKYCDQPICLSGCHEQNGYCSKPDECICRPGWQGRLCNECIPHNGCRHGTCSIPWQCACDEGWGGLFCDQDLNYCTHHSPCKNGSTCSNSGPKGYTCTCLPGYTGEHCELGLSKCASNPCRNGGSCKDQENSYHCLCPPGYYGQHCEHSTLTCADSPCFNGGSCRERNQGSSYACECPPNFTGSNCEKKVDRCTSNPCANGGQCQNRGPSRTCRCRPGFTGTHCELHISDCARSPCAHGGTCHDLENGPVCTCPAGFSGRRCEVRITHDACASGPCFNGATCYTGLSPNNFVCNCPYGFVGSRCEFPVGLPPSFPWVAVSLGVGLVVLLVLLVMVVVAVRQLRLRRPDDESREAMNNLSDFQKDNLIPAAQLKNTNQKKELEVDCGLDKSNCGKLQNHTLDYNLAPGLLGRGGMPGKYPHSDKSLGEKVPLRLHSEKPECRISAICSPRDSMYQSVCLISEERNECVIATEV
# Text: as §1
# [3] = biological target: T3, recombinant human DLL4 (C-terminally His-tagged extracellular domain, R&D Systems) (human, UniProt Q9NR61 25-522, biotinylated in the competition ELISA); assay: ProteOn off-rate screen, periplasmic extract, coated human DLL4
# T3 construct: also called rhDLL4; hDLL4
# Protocol: (§2) In a first cycle, amino acid substitutions are introduced randomly in both framework (FW) and complementary determining regions (CDR) using the error-prone PCR method. […] After a polish step, PCR products are inserted via unique restriction sites into a vector designed to facilitate phage display of the VHH library. Consecutive rounds of in-solution selections are performed using decreasing concentrations of biotinylated recombinant human DLL4 (biot-rhDLL4) and trypsin elutions. Affinity-driven selections in a third round using cold rhDLL4 (at least 100× excess over biot-rhDLL4) are also performed. No selections on murine DLL4 are included as (conservation of) cross-reactivity is assessed at the screening level. Individual mutants are produced as recombinant protein using an expression vector derived from pUC119, which contains the LacZ promoter, a resistance gene for ampicillin, a multiple cloning site and an ompA leader sequence (pAX50). E. coliTG1 cells are transformed with the expression vector library and plated on agar plates (LB+Amp+2% glucose). Single colonies are picked from the agar plates and grown in 1 mL 96-deep-well plates. VHH expression is induced by adding IPTG (1 mM). Periplasmic extracts (in a volume of ˜80 uL) are prepared according to standard methods and screened for binding to recombinant human and mouse DII4 in a ProteOn (BioRad, Hercules, Calif., USA) off-rate assay. In brief, a GLC ProteOn Sensor chip is coated with recombinant human DII4 on the “ligand channels” L2 and L4 (with L1/L3 as reference channel), while “ligand channels” […] is coated with mouse DII4. Periplasmic extract of affinity-matured clones is diluted 1/10 and injected across the “analyte channels” A1-A6. An average off-rate is calculated of the wild type clones present in the plate and served as a reference to calculate off-rate improvements.
# [4] = biological target: T4, recombinant mouse DLL4 (C-terminally His-tagged extracellular domain, R&D Systems) (mouse, UniProt Q9JI71 27-532); assay: ProteOn off-rate screen, periplasmic extract, coated mouse DLL4
# T4 construct: extracellular domain; also called rmDLL4; mDLL4
# T4 sequence (Q9JI71 27-532): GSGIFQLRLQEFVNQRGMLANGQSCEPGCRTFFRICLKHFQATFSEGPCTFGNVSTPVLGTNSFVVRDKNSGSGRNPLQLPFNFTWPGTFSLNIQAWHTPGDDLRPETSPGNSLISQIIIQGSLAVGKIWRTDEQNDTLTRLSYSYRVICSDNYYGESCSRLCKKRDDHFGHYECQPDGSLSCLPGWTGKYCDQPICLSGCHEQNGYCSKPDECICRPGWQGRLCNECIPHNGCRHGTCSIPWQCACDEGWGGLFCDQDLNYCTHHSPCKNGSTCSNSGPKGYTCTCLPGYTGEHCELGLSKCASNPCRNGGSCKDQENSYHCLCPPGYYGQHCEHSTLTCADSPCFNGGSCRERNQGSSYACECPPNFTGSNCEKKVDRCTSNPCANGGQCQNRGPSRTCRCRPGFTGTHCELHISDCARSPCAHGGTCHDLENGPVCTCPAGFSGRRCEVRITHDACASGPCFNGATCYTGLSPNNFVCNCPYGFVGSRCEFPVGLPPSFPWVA
# Protocol: as §2
Binder,% inh [1],% inh [2],fold (off-rate vs DLLBII101G08) [3],koff [3],fold (off-rate vs DLLBII101G08) [4],koff [4]
B1,87%,,,,,
B2,85%,75%,,,,
B3,72%,97%,,,,
B4,86%,82%,,,,
B5,75%,90%,,,,
B6,87%,75%,,,,
B7,85%,83%,,,,
B8,80%,85%,,,,
B9,,,33 fold,6.8e-05 s⁻¹,27 fold,0.00025 s⁻¹
B10,,,31 fold,7.3e-05 s⁻¹,26 fold,0.00026 s⁻¹
B11,,,30 fold,7.6e-05 s⁻¹,26 fold,0.00026 s⁻¹
B12,,,26 fold,8.5e-05 s⁻¹,26 fold,0.00026 s⁻¹
B13,,,26 fold,6.9e-05 s⁻¹,16 fold,0.00031 s⁻¹
B14,,,26 fold,8.8e-05 s⁻¹,20 fold,0.00034 s⁻¹
B15,,,24 fold,7.5e-05 s⁻¹,18 fold,0.00027 s⁻¹
B16,,,24 fold,9.4e-05 s⁻¹,19 fold,0.00035 s⁻¹
B17,,,24 fold,7.5e-05 s⁻¹,17 fold,0.0003 s⁻¹
B18,,,23 fold,7.8e-05 s⁻¹,17 fold,0.00029 s⁻¹
B19,,,23 fold,9.9e-05 s⁻¹,19 fold,0.00034 s⁻¹
B20,,,22 fold,8.3e-05 s⁻¹,17 fold,0.00029 s⁻¹
B21,,,21 fold,0.00011 s⁻¹,24 fold,0.00028 s⁻¹
B22,,,20 fold,0.00011 s⁻¹,18 fold,0.00036 s⁻¹
